Measurements: PMC11601375 (bioRxiv, 2024)

Molecular target: T1, vacuolar Qa-SNARE Vam3 (yeast, UniProt Q12241 1-283)
T1 sequence: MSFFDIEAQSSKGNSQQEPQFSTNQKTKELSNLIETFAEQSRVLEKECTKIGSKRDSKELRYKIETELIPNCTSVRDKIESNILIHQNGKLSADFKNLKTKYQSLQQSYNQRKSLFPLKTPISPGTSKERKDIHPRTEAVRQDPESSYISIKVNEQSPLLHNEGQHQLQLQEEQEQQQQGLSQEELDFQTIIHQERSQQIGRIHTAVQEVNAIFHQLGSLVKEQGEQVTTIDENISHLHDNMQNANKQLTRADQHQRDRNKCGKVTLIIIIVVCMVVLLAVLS
Test: co-IP

B1: vacuolar Qb-SNARE Vti1 (natural protein)
chain: MSSLLISYESDFKTTLEQAKASLAEAPSQPLSQRNTTLKHVEQQQDELFDLLDQMDVEVNNSIGDASERATYKAKLREWKKTIQSDIKRPLQSLVDSGDRDRLFGDLNASNIDDDQRQQLLSNHAILQKSGDRLKDASRIANETEGIGSQIMMDLRSQRETLENARQTLFQADSYVDKSIKTLKTMTRRLVANKFISYAIIAVLILLILLVLFSKFK
  binding result: binds
